In patent US20140017790A1, “CONTROL AGENT FOR CONTROLLING UNDIFFERENTIATED STATE AND USE THEREOF” (RIKEN, priority 2011, published 2014):

Legend:
Assay type in all cases: cell-based
STAT3 = experiment: Western blotting, phosphorylation of STAT3 in mouse iPS cells; conditions: CCL2 overexpressed, 24 hours, relative to negative control
Protocol: The mouse iPS cells transfected with the Ccl2 expression vector were cultured for 24 hours in the same manner as in Example 1. After the culture, the mouse iPS cells were washed with PBS, and then were suspended in 100 μl of a mammalian m-PER lysis buffer. The suspension was passed through a 26-gauge needle for 10 minutes to homogenize the cells. Then, the suspension was centrifuged at 13,000 rpm and 4° C. for 5 minutes, and the supernatant was collected. The protein concentration in the supernatant was measured using a Pierce (registered trademark) BCA Protein assay (trade name, Thermo Scientific). Next, the supernatant was subjected to Western blotting to detect a target protein. […] Then, luminescence on the membrane was detected using a Fuji LAS-3000 luminescent image analyzer.
As the primary antibody, an anti-phosphorylated STAT3 antibody (anti-pSTAT3 antibody, commercially available from CST, #9145) was used for the phosphorylated STAT3 (pSTAT3), an anti-STAT3 antibody (CST, #9132) was used for the STAT3 protein, and an anti-GAPDH antibody (Santa Cruz Biotechnology Inc, #25778) was used for GAPDH, which is an expression control. […] Then, the ratio of the phosphorylated STAT3 to the non-phosphorylated STAT3 (pSTAT3/STAT3) was determined. […]

human iPS cells [1] = experiment: differentiation of EBs to myocardial cells, morphology and Tropomyosin immunostaining; conditions: 10th day from the plating; CCL2(+)/LIF(+) or CCL2(-)/bFGF(+) 5 ng/ml
Source text: It has been reported that, in general, according to the spontaneous differentiation-inducing method used in the above item (1), differentiation into myocardial cells is more liable to occur. Thus, regarding the cells on the 10th day from the plating in the above item (1), differentiation into myocardial cells was examined.
The morphology of the cells was examined with a microscope. Furthermore, they were immunostained with a Tropomyosin, which is a marker for myocardial cells. Also, culture of the cells, observation of the morphology, and staining were carried out in the same manner as in the above using a medium to which bFGF (5 ng/ml) has been added instead of the CCL2 and LIF.
The photographs in FIG. 19 show the morphologies of the cells on the 10th day from the plating of EB. […] Furthermore, in FIGS. 19A and 19B, the photographs on the left show the cell morphologies, and the photographs on the right show the stained cells. In the black and white photographs of FIG. 19, the stained portions are seen as light gray.

human iPS cells [2] = experiment: cell adhesion and growth, number of human iPS cells over time; conditions: bFGF(-)/CCL2(+) versus bFGF(+)/CCL2(-)
Protocol: Human iPS cells were cultured under feeder conditions in the same manner as in Example 8, and the number of cells was measured every 48 hours. As a negative control, the same procedures were carried out except that bFGF was added instead of the CCL2. FIG. 17 is a graph showing the change with time in the number of the human iPS cells. The vertical axis indicates the number of cells (10^4 cells/ml), and the horizontal axis indicates the culture time (hr). CCL2(+) indicates the results obtained under the conditions of bFGF(−)/CCL2(+), and CCL2(−) indicates the results obtained under the conditions of bFGF(+)/CCL2(−).

B1: CCL2: mouse recombinant CCL2 (MCP-1, #479-JE-010, R&D Systems); in Examples 1, 3, 4(1), 5 mouse CCL2 (SEQ ID NO: 3) overexpressed from Ccl2 expression vector (protein, listed as Mus musculus)
chain: MQVPVMLLGLLFTVAGWSIHVLAQPDAVNAPLTCCYSFTSKMIPMSRLESYKRITSSRCPKEAVVFVTKLKREVCADPKKEWVQTYIKNLDRNQMRSEPTTLFKTASALRSSAPLNVKLTRKSEANASTTFSTTTSSTSVGVTSVTVN
For B1, the “ratio of phosphorylated STAT3 to non-phosphorylated STAT3 (pSTAT3/STAT3)” value (STAT3) was “increased”, the “cell morphology of EBs, differentiation into myocardial cells” value (human iPS cells [1]) was “most of them exhibited myocardial cell-like morphology” and the “staining with Tropomyosin (marker for myocardial cells)” value (human iPS cells [1]) was “entirely stained red”. The “number of the cells” value (human iPS cells [2]; as of 48 hours) was “greater” and the growth potential (human iPS cells [2]; as of 144 hours (6th day)) was “improved further”.
